Read-outs that look alike come from different tables or passages of the source.
How the values were obtained:
Assay in all cases: EMSA
[1] = molecular target: T1, Argonaute 2 (AGO2), loaded with miR-34a (Homo sapiens, UniProt Q9UKV8 1-859)
[2] = molecular target: T1, Argonaute 2 (AGO2), loaded with miR-34a; remark: listed apart in the source
[3] = molecular target: T1, Argonaute 2 (AGO2), loaded with miR-34a; remark: listed apart in the source
[4] = molecular target: T1, Argonaute 2 (AGO2), loaded with miR-34a; remark: listed apart in the source
[5] = molecular target: T1, Argonaute 2 (AGO2), loaded with miR-34a; remark: listed apart in the source

T1 sequence (Q9UKV8 whole entry): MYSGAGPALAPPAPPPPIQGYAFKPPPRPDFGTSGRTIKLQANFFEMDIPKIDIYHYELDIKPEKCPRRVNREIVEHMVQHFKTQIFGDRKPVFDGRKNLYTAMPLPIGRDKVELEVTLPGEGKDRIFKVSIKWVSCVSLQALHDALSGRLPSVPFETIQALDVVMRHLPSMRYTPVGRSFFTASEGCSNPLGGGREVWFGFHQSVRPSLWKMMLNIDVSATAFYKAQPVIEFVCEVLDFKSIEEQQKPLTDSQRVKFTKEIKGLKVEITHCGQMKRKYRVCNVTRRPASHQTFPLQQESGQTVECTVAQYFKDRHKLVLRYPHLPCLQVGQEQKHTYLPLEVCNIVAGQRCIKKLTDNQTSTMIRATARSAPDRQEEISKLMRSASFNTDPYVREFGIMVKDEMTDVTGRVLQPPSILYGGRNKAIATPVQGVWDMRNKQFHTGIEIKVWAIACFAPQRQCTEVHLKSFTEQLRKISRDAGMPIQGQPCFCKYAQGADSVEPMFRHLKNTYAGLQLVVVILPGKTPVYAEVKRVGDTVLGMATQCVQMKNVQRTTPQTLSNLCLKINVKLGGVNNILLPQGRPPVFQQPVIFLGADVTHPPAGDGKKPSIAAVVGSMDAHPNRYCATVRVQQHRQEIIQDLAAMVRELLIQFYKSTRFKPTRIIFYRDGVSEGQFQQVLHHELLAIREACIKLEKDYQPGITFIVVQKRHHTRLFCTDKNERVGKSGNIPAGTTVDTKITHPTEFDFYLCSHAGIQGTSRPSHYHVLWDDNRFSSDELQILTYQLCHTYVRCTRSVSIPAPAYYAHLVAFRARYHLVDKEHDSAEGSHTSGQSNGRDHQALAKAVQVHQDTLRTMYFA

Row | Binder | Kd [1] [nM] | also measured
1 | miR-34a guide / BCL2 target (dsRNA, 5' phosphate on guide) RNA 1: UGGCAGUGUCUUAGCUGGUUGU RNA 2: UCGAAUCAGCUAUUUACUGCCA | 8.92 | 
2 | miR-34a guide / DLL1 target (dsRNA, 5' phosphate on guide) RNA 1: UGGCAGUGUCUUAGCUGGUUGU RNA 2: CCGGCCGCCUGCGGCACUGCCU | 69.2 ± 14.1 | 
3 | miR-34a guide / HNF4a target (dsRNA, 5' phosphate on guide) RNA 1: UGGCAGUGUCUUAGCUGGUUGU RNA 2: AGGGCCACAUCCCACUGCCA | 38.9 | 
4 | miR-34a guide / PERFECT target (dsRNA, 5' phosphate on guide) RNA 1: UGGCAGUGUCUUAGCUGGUUGU RNA 2: ACAACCAGCUAAGACACUGCCA | 1.03 ± 0.46 | 
5 | miR-34a guide / SCRseed target (dsRNA, 5' phosphate on guide) RNA 1: UGGCAGUGUCUUAGCUGGUUGU RNA 2: ACAACCAGCUAUCACACACGGA |  | binding result [2]: binds
6 | miR-34a guide / NOTCH2 target (dsRNA, 5' phosphate on guide) RNA 1: UGGCAGUGUCUUAGCUGGUUGU RNA 2: UCAGUGAUGAGGAGGACAACACUGCCU |  | Kd [3]: 496 ± 129 nM
7 | miR-34a guide / CDK6 target (dsRNA, 5' phosphate on guide) RNA 1: UGGCAGUGUCUUAGCUGGUUGU RNA 2: UACUUUCUGCCACACACUGCCU | 26.9 ± 1.4 | 
8 | miR-34a guide / PNUTS target (dsRNA, 5' phosphate on guide) RNA 1: UGGCAGUGUCUUAGCUGGUUGU RNA 2: AAAGUCACACUACAUGCACUGCCU | 14.5 ± 2.9 | 
9 | miR-34a guide / MTA2 target (dsRNA, 5' phosphate on guide) RNA 1: UGGCAGUGUCUUAGCUGGUUGU RNA 2: GGUACCUGGUUGGGGGAGGGGGGCGUGCACUGCCA | 66.1 ± 11.2 | 
10 | miR-34a guide / WNT1 target (dsRNA, 5' phosphate on guide) RNA 1: UGGCAGUGUCUUAGCUGGUUGU RNA 2: GGAGACCCCUUGUUGCACUGCCC |  | binding result [4]: binds
11 | miR-34a guide / NOTCH1 target (dsRNA, 5' phosphate on guide) RNA 1: UGGCAGUGUCUUAGCUGGUUGU RNA 2: ACUUUUAUUUUACACAGAAACACUGCCU |  | binding result [4]: binds
12 | miR-34a guide / SIRT1 target (dsRNA, 5' phosphate on guide) RNA 1: UGGCAGUGUCUUAGCUGGUUGU RNA 2: ACACCCAGCUAGGACCAUUACUGCCA |  | Kd [5]: 2.68 ± 0.3 nM
